According to article PMC12416549 (2024):
Numbering of substitutions follows the chain as printed. Names and notes keep the numbering of the source.

Biological target: T1, TNFR1 (Homo sapiens, UniProt P19438)
T1 chain: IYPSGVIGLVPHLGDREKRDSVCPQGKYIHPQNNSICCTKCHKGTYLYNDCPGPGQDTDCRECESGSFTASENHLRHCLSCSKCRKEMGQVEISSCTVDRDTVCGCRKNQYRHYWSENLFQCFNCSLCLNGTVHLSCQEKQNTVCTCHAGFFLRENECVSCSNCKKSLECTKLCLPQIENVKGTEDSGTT
Assay: yeast display SC50

B1: R65I (designed binder)
chain: SMEEEVEKAAKEYEKKKKEAIEKHLEKLKAKDKEAAERFLKELEEAAKEYAKDEAKTMSEEEAKIRAKKYKEKVLLSELSEEEQKEIKEAEEKLVRTILKYVEEAAK
apparent Kd (screen): 1.4 nM

B2: E72M (designed binder)
chain: B1 chain with I65R, E72M
apparent Kd (screen): 1.69 nM

B3: E82I (designed binder)
chain: B1 chain with I65R, E82I
apparent Kd (screen): 0.49 nM

B4: A105D (designed binder)
chain: B1 chain with I65R, A105D
apparent Kd (screen): 0.446 nM

B5: A63V (designed binder)
chain: B1 chain with A63V, I65R
apparent Kd (screen): 15.2 nM

B6: E5H (designed binder)
chain: B1 chain with E5H, I65R
apparent Kd (screen): 0.446 nM

B7: E61S (designed binder)
chain: B1 chain with E61S, I65R
apparent Kd (screen): 1.4 nM

B8: L75Y (designed binder)
chain: B1 chain with I65R, L75Y
apparent Kd (screen): 1.86 nM

B9: E103W (designed binder)
chain: B1 chain with I65R, E103W
apparent Kd (screen): 0.869 nM

B10: A67E (designed binder)
chain: B1 chain with I65R, A67E
apparent Kd (screen): 15.2 nM

B11: A10Q (designed binder)
chain: B1 chain with A10Q, I65R
apparent Kd (screen): 1.4 nM

B12: A46W (designed binder)
chain: B1 chain with A46W, I65R
apparent Kd (screen): 2.25 nM

B13: K68H (designed binder)
chain: B1 chain with I65R, K68H
apparent Kd (screen): 1.4 nM

B14: L99I (designed binder)
chain: B1 chain with I65R, L99I
apparent Kd (screen): 2.05 nM

B15: K8R (designed binder)
chain: B1 chain with K8R, I65R
apparent Kd (screen): 0.869 nM

B16: K64C (designed binder)
chain: B1 chain with K64C, I65R
apparent Kd (screen): 0.79 nM

B17: K23G (designed binder)
chain: B1 chain with K23G, I65R
apparent Kd (screen): 0.446 nM

B18: E91R (designed binder)
chain: B1 chain with I65R, E91R
apparent Kd (screen): 6.43 nM

B19: M2S (designed binder)
chain: B1 chain with M2S, I65R
apparent Kd (screen): 0.446 nM

B20: E5I (designed binder)
chain: B1 chain with E5I, I65R
apparent Kd (screen): 0.653 nM

B21: K69F (designed binder)
chain: B1 chain with I65R, K69F
apparent Kd (screen): 0.869 nM

B22: T57S (designed binder)
chain: B1 chain with T57S, I65R
apparent Kd (screen): 1.27 nM

B23: E49T (designed binder)
chain: B1 chain with E49T, I65R
apparent Kd (screen): 2.73 nM

B24: R65T (designed binder)
chain: B1 chain with I65T
apparent Kd (screen): 2.05 nM

B25: E14A (designed binder)
chain: B1 chain with E14A, I65R
apparent Kd (screen): 3 nM

B26: E26C (designed binder)
chain: B1 chain with E26C, I65R
apparent Kd (screen): 0.49 nM

B27: V74I (designed binder)
chain: B1 chain with I65R, V74I
apparent Kd (screen): 0.446 nM

B28: K56R (designed binder)
chain: B1 chain with K56R, I65R
apparent Kd (screen): 1.54 nM

B29: E91W (designed binder)
chain: B1 chain with I65R, E91W
apparent Kd (screen): 6.43 nM

B30: K107F (designed binder)
chain: B1 chain with I65R, K107F
apparent Kd (screen): 3 nM

B31: L43F (designed binder)
chain: B1 chain with L43F, I65R
apparent Kd (screen): 13.8 nM

B32: Y50A (designed binder)
chain: B1 chain with Y50A, I65R
apparent Kd (screen): 29.5 nM

B33: R65P (designed binder)
chain: B1 chain with I65P
apparent Kd (screen): 20.2 nM

B34: L94K (designed binder)
chain: B1 chain with I65R, L94K
apparent Kd (screen): 1.4 nM

B35: E7V (designed binder)
chain: B1 chain with E7V, I65R
apparent Kd (screen): 7.78 nM

B36: K27S (designed binder)
chain: B1 chain with K27S, I65R
apparent Kd (screen): 0.869 nM

B37: V74T (designed binder)
chain: B1 chain with I65R, V74T
apparent Kd (screen): 16.7 nM

B38: D53H (designed binder)
chain: B1 chain with D53H, I65R
apparent Kd (screen): 1.69 nM

B39: E49Y (designed binder)
chain: B1 chain with E49Y, I65R
apparent Kd (screen): 26.9 nM

B40: E44Y (designed binder)
chain: B1 chain with E44Y, I65R
apparent Kd (screen): 1.54 nM

B41: E91H (designed binder)
chain: B1 chain with I65R, E91H
apparent Kd (screen): 4.39 nM

B42: E82W (designed binder)
chain: B1 chain with I65R, E82W
apparent Kd (screen): 0.539 nM

B43: Y13P (designed binder)
chain: B1 chain with Y13P, I65R
apparent Kd (screen): 13.8 nM

B44: A47D (designed binder)
chain: B1 chain with A47D, I65R
apparent Kd (screen): 1.16 nM

B45: L40T (designed binder)
chain: B1 chain with L40T, I65R
apparent Kd (screen): 0.718 nM

B46: E5L (designed binder)
chain: B1 chain with E5L, I65R
apparent Kd (screen): 0.49 nM

B47: M2F (designed binder)
chain: B1 chain with M2F, I65R
apparent Kd (screen): 1.05 nM

B48: T57E (designed binder)
chain: B1 chain with T57E, I65R
apparent Kd (screen): 3 nM

B49: R65W (designed binder)
chain: B1 chain with I65W
apparent Kd (screen): 11.4 nM

B50: E45M (designed binder)
chain: B1 chain with E45M, I65R
apparent Kd (screen): 1.69 nM

B51: L76V (designed binder)
chain: B1 chain with I65R, L76V
apparent Kd (screen): 1.4 nM

B52: E62I (designed binder)
chain: B1 chain with E62I, I65R
apparent Kd (screen): 2.73 nM

B53: A63Y (designed binder)
chain: B1 chain with A63Y, I65R
apparent Kd (screen): 12.5 nM

B54: L99S (designed binder)
chain: B1 chain with I65R, L99S
apparent Kd (screen): 11.4 nM

B55: V95L (designed binder)
chain: B1 chain with I65R, V95L
apparent Kd (screen): 7.07 nM

B56: D32R (designed binder)
chain: B1 chain with D32R, I65R
apparent Kd (screen): 3.99 nM

B57: V95D (designed binder)
chain: B1 chain with I65R, V95D
apparent Kd (screen): 5.84 nM

B58: L94F (designed binder)
chain: B1 chain with I65R, L94F
apparent Kd (screen): 0.446 nM

B59: R66D (designed binder)
chain: B1 chain with I65R, R66D
apparent Kd (screen): 0.593 nM
